Test: soluble on expression in E. coli; label from the status in PepcDB or PDB records

| Sequence | soluble on expression in E. coli |
| --- | --- |
| MPIEATMSTSNESANLLVPSFLPRGEVLGWNLTSVVNPVTRRKEYTYTVCVQTVGAFQCTEQAGVVLVKCDGPCGNKLPTNHLIALGKCDHMLCKACFGIVKNPDGSYGCSNFYCWSEPRGNFRKEKANYNKVINKQICRARKFKQDGEDLQACSKSNLPKTPADLSDREMNSAKSSESDTSSSDGSSYQSTVDSYGLPKRF | not soluble |
| MPIKSKANEVPKEEAGVKKETPKVARKATKKDTPKELKDKENAGDDNTPKQTKGRPGRPAAKRKNLDTPDVTEKLAMEEENPPKRRSSRLTRSTRSMAEDGSPSPEKEKPEKLPFIKYKGAIKYFTESQDIAASADDVLQWVEKQKDEVVPMAFDMEWPFSFQTGPGKSAVIQICVDEKCCYIYQLTNVKKLPAALVALINHPKVRLHGVNIKNDFRKLARDFPEVTAEPLIEKCVDLGLWCNEVCETGGRWSLERLTNFIAKKAMDKSKKVRMSKWHVIPLDENQLMYAAIDVYIGQVIYRELERREKVKIKNEEEFKEKNGDAAFKAMKALGETFLTKINEVTLLEHHHHHH | soluble |
| MPILQELRLGKRISRDISLADLYQEWIELKILPSSRSEETKKKYLLRKNTIERLFGNKKVTQIRASEYQRIMNKYGQTVGRNFLGRLNTGIHQSIQMAIADKVLIDDFTQHVELFSSKLEHHHHHH | soluble |
| MPIRSNPFFNMDSSALLSLLRHTGTSMDSKSSKKSSGSIGGGVLKMFKLIPMLSSGCKMVNLLSRGHRRPLLKDYATTGTIFGFRKGRVFLAIQEDPHCLPIFIIELPMLTSALQKEMASETVRIALESETKTSRKKVLEEYVWGIYCNGRKIGYSIRRKNMSEEEMYVIDALRGVSMGAGVLPCKNQYDQETEGEMTYMRARFDRVIGSKDSEALYMINPEGSGQGTELSIYFLRSH | soluble |
| MPKAVAVLFFLLFTSLSYAESAFDIVQKSDQAMRGKSSYSEATMEIVRPDWTRSMTMKSWTKGTELSLVLVTAPAKDKGSASLKRHREMWNWVPSIERVIKIAPSMLSQSWMGSDFTNDDLINQSSIVVDYQHALLGNDSFEGDKVWVIEATAKPDAPVVWNKVTLWISQSTYLQRKVEFYDEFDERVNVLTTYDVKELGGRKIATRMEMKPVDKPGNKTIFTTHQAQFDFDINDDFFSQQQMKSLRD | not soluble |
| MPKIAKSDRLENVAFEYIKNKITTGEYPTGYRVVEAKLSQELNMSRTPIRRAIINLCHSGFLVHQYNRGAFVQNTEVTITEFFSRMKLVELLVYESTEKLALREDYIVVDDIIEIAEKVIQYEKNREYELMRGAFEDFISTFIGKLNNDYFNRVIQDLWNEINDNATKEVRLIIVSASDRIAEELAHMIEILKSWNYEQLKKCFQHIMNAMILIAF | not soluble |
| MPKIYTKTGDKGFSSTFTGERRPKDDQVFEAVGTTDELSSAIGFALELVTEKGHTFAEELQKIQCTLQDVGSALATPCSSAREAHLKYTTFKAGPILELEQWIDKYTSQLPPLTAFILPSGGKISSALHFCRAVCRRAERRVVPLVQMGETDANVAKFLNRLSDYLFTLARYAAMKEGNQEKIYMKNDPSAESEGL | soluble |
| MPKRAVSFADDIETRVFKRDKREIEDGILDIPMEEDVVKERPGNADEDEEEKKKFHTLESDEEEEEDHKRLDTRRVEGQEDCGVDFDGSIKITAFNMKEDEEEGHFDETGNFIFDKKTKDVQDAWLDGIDWSLVKKKAGDQWEGDEDKKSLEDEEPEPITMSDARKKEIFEQLVNLLKPNQTVAKALSELKKKKGLSAAEERKLRWAAKKAGKSFEPTDGQKETSQLSGLADELISAGIMDAYEWHREKFNFQLQKMISTAADELDMFSDEPTSTGAARAAGAPMEQEEEEADDSVKWEYKANEEAKIEVEYEKTDDFGEIRVNKIGPIPTSEMMDRQSKGLLSAEGVARRSGTNGHFNPVARIDFELYL | soluble |
| MPKRGLDVSSCEIFRFYKLITTKSLIEPVSMIVPRRSESYQEDIYPPTAAAQPSLTAHEWLSGMNRGKGGWEQAARLGNWSPGGPK | not soluble |
| MPKRKLKTPESTETTKICKKNDNFSDFWSEKLDEIGSAHLADTKSRTKSAVKHELTGIGSSSIYKGTRDLQLPKSEDLSNFGWNEGVLEHLQVLLEEIEVDEKKEEQIEAERGAILKFTAEYRDLLAITGDQGGYRSIYCAHIIQHLIRNKNLIIGNKRKLEIASTQEGGADEETIESCRDSGFVRPVVLVLCAFKKDAYDIINRLRRILHGDDEGKSEVWNKNRFEEEYSGPTELPTTRADFPDDHKELLLGNNDDAFRIGLAISKKVLKLYEKFEKADILVCSPLGLRMILNGDDGNEAHLISSINMTIVDRTDIMLQQNWENLQLIFSHLHSQPSKIDVDISRVRKLYLDGQSRHFSQLLMFSRYSHELFTSLMLQNSQNHRGLVIAKPKQSGTLSNIEIPLCQELHKFEVKDPNETSDLRFKYFVDKIMPSLIPRTLIVIPSYFDFVRVRNHLKKAEESFVMCHEYATRAKVDRAREMFFHERKSYLVVTERWYFFNRRHLTGVHRVVFYQLPSHPLFYSEFINMSDAETSQRFLAVLLLCKYDRIRLENTFGTEMAAAVMSNKQAVQAIVSQ | not soluble |
| MPKRRLQTTLSEEAFRIIEKFKPDYGGINEVIEAALKLLNREDRNLSEDDILLIRLIRDLDFTGCGRSQYMHLICGDIEKAVKESMMETAVEWFLKKPFAEIELEEFLETVKRGWKVLNRVDYVEITKGDGWIQIFCEHTMRRREVSEFLAMHILNIYEKYYKGEWDVVKSISTNGFTLKFYRRV | not soluble |
| MPKVGMPEIRKPQLVKATMSVIDRVGLHAASISLISKEAGVSTGIINHYFGGKHGLLEETMREILRQLSSTITGKLRALPADAHHQRINAIIDGNFVGYQAENKVAKTWLAFWSYSMHDEQLKRLQRVNERRLLSHLRRELKALLSAEQAELVAHGIASLIDGIWLRGTLNPQGIEADKARIIINDYLDKQLTFYSHKI | not soluble |
| MPLEASELKPTAGPLEASELKPTAGPLEASELKPTAGPLEASELKPTAGPLEASELKPTAGPLEASELKPTAGPLEASELKPTAGMIVVYVFVYAFKAVKQYFYPSDNLKVLMHKFTDMVNFTINIMIEKNLTSRNSVSNEVYHKLKEYEIPSYYYIEAINKAVALVKTYRKRLKKKQKATVPHVEKPMLSTYYGFKIVGGNIMIPIANREYESIPLNAYVRDATSMVKVHSFALSAYTLSLTIGRDVDAIECTTTVGVDRNLRNITVGNEFHHEIYDLSNIVEIKQRYRKKESHFHRNDRRIREKILSKYGKRERNRVKQIMHETSKAIVSNASTKKEMIVLENIIGINQITKKGDGKGKDYRFLLKNAFPYGMLASQVMYKASWEGLPVIELTRKETRNTSRMCSVCGSLTRIEHGRILKCDSCGLEIDRDVNACINIAFRYRTCLKRSHKGLPGEAVKQSKDVEQMAGSQISMDILEHHHHHH | not soluble |
| MPLELWIVFNLFGRKSPRSNIKPARGPGETVREADLRYLQEWVSTHAVVEAFVEPETIVNEMSVVLVDITGEFTRRRIGGPKGIDVISSTLGVPVYDVEETGYPQRMREKIERDRILRKREEQRERREKLQRERGESQ | not soluble |
| MPLIAGIDIGNATTEVALASDYPQARAFVASGIVATTGMKGTRDNIAGTLAALEQALAKTPWSMSDVSRIYLNEAAPVIGDVAMETITETIITESTMIGHNPQTPGGVGVGVGTTIALGRLATLPAAQYAEGWIVLIDDAVDFLDAVWWLNEALDRGINVVAAILKKDDGVLVNNRLRKTLPVVDEVTLLEQVPEGVMAAVEVAAPGQVVRILSNPYGIATFFGLSPEETQAIVPIARALIGNRSAVVLKTPQGDVQSRVIPAGNLYISGEKRRGEADVAEGAEAIMQAMSACAPVRDIRGEPGTHAGGMLERVRKVMASLTGHEMSAIYIQDLLAVDTFIPRKVQGGMAGECAMENAVGMAAMVKADRLQMQVIARELSARLQTEVVVGGVEANMAIAGALTTPGCAAPLAILDLGAGSTDAAIVNAEGQITAVHLAGAGNMVSLLIKTELGLEDLSLAEAIKKYPLAKVESLFSIRHENGAVEFFREALSPAVFAKVVYIKEGELVPIDNASPLEKIRLVRRQAKEKVFVTNCLRALRQVSPGGSIRDIAFVVLVGGSSLDFEIPQLITEALSHYGVVAGQGNIRGTEGPRNAVATGLLLAGQAN | soluble |
| MPLIFAPFAADLARRAAALMPIDVLEIAAGTGAVTREMIPRLLPAAHYVVTDLNQPMLDFAAAQQAPDNRIKWRQADAQLLPFENAVFDLVFCQFGAMFFNDRLSAYREAKRVLKPGGHYLFNVWDRIEENHFADDVTNALAGLFPDDPPRFMARTPHGYHDTVLIRRELENAGFSRVTVETVAAQSRAPSPRIPAVAYCQGTVLRTEIEARAPGKLNAATDCAAAAIEARHGKGEVAAKIKAHVILAAV | not soluble |
| MPLKAYRPPEDPGLWDTYLEWLERALKVAEAHPTTLEYLAHPKRLVTLSLPVVMDDGKVRIFQGYRVVHDIARGPAKGGVRLDPGVTLGQTAGLAAWMTLKAAVYDLPFGGAAGGIAVDPKGLSPQELERLVRRYTAELVGLIGPDSDILGPDLGADQQVMAWIMDTYSMTVGSTVPGVVTGKPHALGGSEGRDDAAGLGALLVLEALAKRRGLDLRGARVVVQGLGQVGAAVALHAERLGMRVVAVATSMGGMYAPEGLDVAEVLSTYEATGFLPRLDLAPEEVFGLEAEVLVLAAREGALDGDRARQVQAQAVVKVANFGLTPEAEAYLLGKGALVVPDLLSGGGGLLASYLEWVQDLNMFFWSPEEVRERFETRVARVVDAVCRRAERGGLDLRMGALALALERLDEATRLRGVYP | soluble |
| MPLKPGANPYKILHLEKGCTDKEIQKAYRAQCLKWHPDKNLDNKEEAERRFIEAKEAFDFLYDKEKREEYDNREERIRMAQEHHSKRMAEADGKRKKLIEDLEKREKEFSNGGKRSADGSTPMTAAQQAKKKKTDQRNFKEEIEAIRRQLEKEVNEEVKQKATLMKTEREKHQKSQEKLTPRLLLKWKTSEGLDYSEDDIRKLFSTFGIISHISSAIEKKDRRKRILEFESGANAWGAELETGNAPMPEITCEWLQPPVETVKKASDEPVKSTNTGANNLEHMSLDDLEAQIMGGF | not soluble |
| MPMTDLPSAVTNERTEQTNTTNEQQESKGFDYLIVGAGFAGSVLAERLASSGQRVLIVDRRPHIGGNAYDCYDDAGVLIHPYGPHIFHTNSKDVFEYLSRFTEWRPYQHRVLASVDGQLLPIPINLDTVNRLYGLNLTSFQVEEFFASVAEKVEQVRTSEDVVVSKVGRDLYNKFFRGYTRKQWGLDPSELDASVTARVPTRTNRDNRYFADTYQAMPLHGYTRMFQNMLSSPNIKVMLNTDYREIADFIPFQHMIYTGPVDAFFDFCYGKLPYRSLEFRHETHDTEQLLPTGTVNYPNDYAYTRVSEFKHITGQRHHQTSVVYEYPRAEGDPYYPVPRPENAELYKKYEALADAAQDVTFVGRLATYRYYNMDQVVAQALATFRRLQGQPEQGNAE | soluble |
| MPNDVDNTKITLSLGKCGYLPQDVRTMTKFDKNTKQIRTFAFVEFSNRETAEQWMTDYEGWLTLDDGRTLAVEYAKGDPAAGSGNKGDDWICAHCSMNNFVKRQTCFKCEISKDQSMELEKLGAHMVGMTPCDTLLIRGLPDGINNSLIFDSLGALVCLSSISMIKLSESKRFAYLQMKSADEAKMLLNLTYKSPIRIKDKDVQVSWCRDSMSKLIQQQMTMLTAGPGKNSVATGSLAQGNMTGAEIAAAALSKANAVRQASQQVGQIMTGLPAPAANMIPPNFSVPPPNLSVPPPMQATQPEHQNGVIGMTQTPKGLLPRYLPPNPLTFAHDPNLGYYVDPITKFCYDSATGYYFNNATSQWCNWDLTHHTYFPVETPAVINSADPEEEKMKKNEEGPKTAQDLVKDMAKWAKRQEKDKKKVQISIKGKETKGIELKNVFSNEKQKRIAQTAALFDDDEEEDQEEEVRGRRSEEPSTSSSFSSVPLAPRKSTLQDVRDAMERALYDETKKTCMLCKRAFSDVEVLRKHVEKSDLHRNNLEAKRAEWGRETAAKLQEEEEDASAPDLPKIVYRDRAKERRRQFGIDSTGYAFDVMGGPPGPTSVRHEETIRKVSEEASKRPLDESNIGNRLLKSMGWKEGQGVGKHAQGIVNPIEAERFVQGAGLGAAGSKMRHGAEASHKEKTRQALYSRYHDA | not soluble |
